Test results published in the domain aggregation screens of Martell et al. (2025).

Assay: soluble fraction after stress (log2 fold change); higher = more stays soluble; pooled small domains, quantitative proteomics
Conditions: stress: 75 degC
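Note: 20 min heating vs room temperature control held 20 min.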

Sequence | soluble fraction (log2)
HMNALVAKYKQGVTEEQQQGQGIIIIKRVVVRDQEAWVYEKKIFDWGGVSYFRDKQRITASTFNQETAL | -2.79
HMNAQLTTQEAADLLNVSRPHLVKLLEDGELPFLRTGKHRRVRLADLLQFKNAREQASVQAMDELSRQAQ | -0.103
HMNARSTSYSDFIARVDKDEVASVRLDGETVTYQAADGTTYTTVKPESDPIAERLIAKGIEVNVVRQ | -0.348
HMNASITVPDVRNLTVKQASEQLLASGFTPIPYAATKDGVGNDIVYAQDPPPSVLARSGDQITITYNPA | 0.0994
HMNASTVTLENFEGAKYDDVYGKYDYQFSVTYEQTDKYESGVIISQKPEAGTKIIKGSQVSLVVAT | 0.115
HMNASVIADLFRQTGASVMIHGHTHRPDIHALEANGDAAFRAVLGAWHTEGSMIRVTQDDVTLIAFP | 0.0461
HMNATLEQLTQREREIAVLMAEGLTNAQIGSRLNVSMASVKAHLSHIFTKLGVDNRVSAAMMVL | -0.868
HMNATPDMERYWASSAAEGRALEPLYAVSRGDGGEPLWWSPSRAQAERMAREEGGPLTVDRIDPP | 0.113
HMNAVYAEERRAYILAALEKRGTVHSYELAEQMGVSRETIRRDIMELSNRGLLVKTHGGAIST | -1.45
HMNAYEVLIPNIYIGQRVDQTLASLFPQFSRSRLQNWLARGNLLIDGEIIKPKTKVLGGEQIIILDT | -1.72
HMNDAEEKAEAIEGVKNFMANMEKTDIDFKSKESVLLEQVEEIRKNYPVAQWPVIVKQLYNNIGRL | -0.0997
HMNDIDKFVAALVDQDTMAGTNRAFDENDIQTMKNMSSIEDVKQYAVANGLSSGKVNNALISAGL | 0.234
HMNDIQIILQEAVARLPKKQQLVFNMKYFDHLKYQEISEILGTSVGGLKASYFQAVKKIENYIINKH | -2.27
HMNDRLFQILYLLLEKGTMTAPELSRALEVSVRTIYRDIDALSLAGVPVYATQGKNGGVSLLPNY | -2.46
HMNDTLQEYFEALERLKSNNPINVPKNTKINNDSVALEAGRKRGSIKKSREIFAELIEAINNAS | -0.303
HMNDVEAIDDALKDLHKVSPDLAALVEMKFFGGMTEPEISEILGVSERTVRREWEKARAALLVLLE | -1.63
HMNDVHELPYSSFIEMVERGHVISVTVKHINIEFESTKNENYRTIAPQAMTPPYLELLLKNKDSVKVTFLP | -1.98
HMNDVLVGAIPESASGSRLDKVMPSVFPPYSRSQLQVWLKQGRILMGNGIPSPRLIVSGGEVLSLVVPELP | -1.02
HMNEDFSEIIAAVKKFAVDNLSLSTLSDEELEEQIKTITDNMIGNRYVSIKNRVDIAQQVFSSIR | -0.291
HMNEMEFAQRLRQFRKAKNLTQQELADRLGVSNKSVSRWESGSYPDVGTLVALARALGVTVDELLDPKA | -0.00291
HMNEMEWVAKLIDQLPERERMILQLREIEQYEFDQIASLMEIPEGTVRVYLSRIRKKIKKQFIEIQSH | 0.0404
HMNENFPYRLKEMVVVQSRTWPGINKPGGVGQVMKINPEAGTVNVKYVLGGSEKNIELKYVTSNDLNSK | -0.489
HMNENYNLSKREKEVLDLLVNGKSYKVIATELAISYETVHSHIKKIYHKLHVSSIGEAVSKTIKQKIL | -3.11
HMNEPITIALREAEEAANKILNEGVHSVELSPQNGYVRRLQHELIARYGLTSASRGSDPSRRVSVGAN | -0.295
HMNEQKVSSLLTPRQLAFIDEYLIDFNGAQAAIRAGYSHKTAGPQAARLLVNVNISRMIAERIEARNK | -2.5
HMNEQVAVVSGSQVNVRSGPGTTSAVVGQVSKGDNLPVLNQSGDWYQIKLPGGNAGWVAGWLVSLRPTT | 0.0105
HMNESPVLAVLTPTERKVASLVAEGLTNQAIAARMILAEGTVKNHVSTLLHKLQAPDRTALALTLYKAFQ | -1.3
HMNETRVDQAADLLLALLEKEPKSAAEILDEFEQAGFSKSGLYRAKDALGVVSIRKEGRWVWSLPHSLD | 0.438

Sequence | soluble fraction (log2)
HMNEYIVSAEQEGMRLDVFLTEQMEGSRSYIQSLIKGGHVTVGDKVGKANLRLTPDTVIHVEIPEPE | 0.0133
HMNEYLPEAVQKLLEVMEYDIPYTSNELMERLGLKAKEGFRRNYLHPAMEMKLIQMTIPDKPNSRNQRYLR | -2.13
HMNFHLEHHIAELLYRSIRGELSDFERQELNQWRSDSPMHETLFMRLQDDEYIDEELGVFIK | -2.76
HMNFKNMIDSLSGILFKKDPSAAIIDIGGVRLKVFITVGSYEQLPAKGEQVEILTYLHVKEDILNLYG | -1.85
HMNFMDGFQSFFQESGAMNRPMTADVVSYRLPDGTVQQGNSTMRGLMDQYLKSIGQSPTTGVP | 0.0171
HMNFRESVLAVFENSKQKYLDFDEIAKRLGLTRGFDRQALASMLNELTRNDEIVFTKRNKYTLPEN | -0.524
HMNGAVAEQARKQLMAALKASEFIAEEKLDEWLDALALPEDKRTAIVDAVDELDYEEAISELEN | 0.429
HMNGDYFEYRYAVNGSRSTPPSLSKTSRNPSGWSTTVPTVGNLQYLWFTVAKINGETNSLIQNWSTPARQT | -1.88
HMNGEAQTMYVTARTLNVRKGPGTSYAKAGTLSRGTAVQVVGFSGNWAKLSNGYYVSTSYLAKI | -4.25
HMNGKWKLRIIKELLHSNIRFGQILKNIPDISPKVLSQQLKEMEEDGIIERIVISEMPPNVEYVLTDMGE | -1.66
HMNGLNISYRMDGENVVETIVFPDATMIRTIAPNGVMTIKTIEDGSVSTSELKADYKLYKKIYESQY | -0.748
HMNGSVLVTGGSVWIRAGASKETDGLGIVHKGDVLKRSGSDASGWRGVVYEGQNAFISAKYSSI | -0.89
HMNGTEAIRRYIDQFASKHATTPRMLKLNERKQLIQELKNNGLLEIKKAVETVAQHLGISRASAYLYVKE | -1.52
HMNGVPDMSPVPEGARNSTLHAWAFGRLKNHPDNETGIREDLFRRGHASGLQDAELDQIWKSIKRTL | 0.00545
HMNGVSNETLIQKSALYEELNQPDLALKMINTALKKDSVNIEILHRLVTLLMSQEKNEEAILYNQKIIDH | 0.0902
HMNHSITLTERKNLLITGVKKIENFDKEEFLIETTMGFLVVKGDGLELIKLDTISGNVSIKGIVNGFTYID | 0.15
HMNIAAVIGQTGVLQDDLKAGEQGTVKADNKLWTAVLAEGEEAVKKEERVDIVAVEGVKLIVRRNI | 0.663
HMNIDEIFLTKNEIYFSFEYQKKSQLDRYSKIISLDHRIDKNTAYAYANKKQFLNFINLNIDYKIIDNSF | -2.87
HMNIDEIIGKKAVVIESIDNLQGTGKVRYQGMEWTARAEEENDRIEKDAEVEIIAVKGVKLIVKMK | -0.384
HMNIDNTWQPSEDVVEILTRSGINEDFINELIPEFIVYWTERPGTLVSYNSKFIEHVRLKWAQHSAEI | -0.375
HMNIDVAAEKQQLGPNADQIVKGTVTWMQGLVAKGIWSETDFEEGKIFTATADGINAINKIRRYYGEQT | 0.0956
HMNIEDFKDKVKELKQYTYQELVEDVKLKTDRADVILPASKIYLEAMQQAKVDSIIVPKVGLAEGVAR | -0.012
HMNIEEQVVAEVLVKDFMKQLTPRDIHILELRKNGYTYQEIAGQLGYHTHSAVKKRVDRLAEQWLAYTQGH | -2.26
HMNIFAHQIGKLRTERHLSQTDVAKRLYVSRQAVSKWENGDAEPSLDNLIALAKLFNVSLDNLITGQ | -1.78
HMNIGVEQIEQMERGALITLWQELIDKPLPRHMSIVFLRQVLAFEVQSKQNGGLPRGFITLLNKQAD | -0.826
HMNIKITKSKNSEHYSIIYNTKINGKRTSKIYENIGNFEKLKLRAGEQEPIEWLKNYVSELNKKQKEDT | 0.11
HMNIKYDFPTNSPLEMMRNLFDSNSQIINDLKDGFAMANSLNEQGLANFFAERIDKHQFWSWQLSASL | -0.201
